This series has as its system CCCCCCCC(=O)Oc1ccc([N+](=O)[O-])cc1. As to the kind of experiment: purified protein. The format is biochemical, Pseudomonas chlororaphis. Particulars: optimal assay conditions (optimum pH 6.0, 50 °C), 0.1-3.0 mmol/L substrate.

For one substance, Km results are on record in paper PMC10003648, “Polymer-Degrading Enzymes of Pseudomonas chloroaphis PA23 Display Broad Substrate Preferences” (International Journal of Molecular Sciences, 2023).

The Km is the concentration of substrate that gives half-maximal velocity.

For LIP4 (Pseudomonas chlororaphis), the Km was 333 µM.
